Common to all, as to assay: SPR
Background: In SPR one partner is held on a chip, and binding of the other changes the refractive index at the surface.

Experiment [1] deals with CA645 gL4gH5 Fab (human) [IgG part: P01857].
The target is the same in experiment [2]. The source holds these as a separate data set.
Experiment [3] shares this target. This is another data set of the same source.
The target is the same in experiment [4]. The source holds these as a separate data set.
Experiment [5] shares this target. The source holds these as a separate data set.
The target is the same in experiment [6]. The source holds these as a separate data set.
Experiment [7] addresses T1, human serum albumin (Homo sapiens, UniProt P02768).
In experiment [8] the target is human serum albumin (Homo sapiens, UniProt P02768). The source holds these as a separate data set.
For experiment [9], the target named is T1, human serum albumin. The source holds these as a separate data set.
Experiment [10] concerns the target T1, human serum albumin. This is another data set of the same source.
The next experiment concerns the target mouse serum albumin (Mus musculus, UniProt P07724).
Experiment [11] concerns the target T1, human serum albumin. This is another data set of the same source.

Like-named read-outs stand apart in the source and are kept apart here.

In general, Kd refers to the free concentration of one partner at which half of the binding sites on the other are occupied at equilibrium, for simple one-to-one binding. Higher therefore signals lower affinity. One may read the koff as a measure of how fast the partners let go of each other. A high value points to fast dissociation. The term kon denotes a measure of how fast the partners come together. The low end stands for slow association, the high end for fast association.

Chain of mouse serum albumin (P07724 25-608): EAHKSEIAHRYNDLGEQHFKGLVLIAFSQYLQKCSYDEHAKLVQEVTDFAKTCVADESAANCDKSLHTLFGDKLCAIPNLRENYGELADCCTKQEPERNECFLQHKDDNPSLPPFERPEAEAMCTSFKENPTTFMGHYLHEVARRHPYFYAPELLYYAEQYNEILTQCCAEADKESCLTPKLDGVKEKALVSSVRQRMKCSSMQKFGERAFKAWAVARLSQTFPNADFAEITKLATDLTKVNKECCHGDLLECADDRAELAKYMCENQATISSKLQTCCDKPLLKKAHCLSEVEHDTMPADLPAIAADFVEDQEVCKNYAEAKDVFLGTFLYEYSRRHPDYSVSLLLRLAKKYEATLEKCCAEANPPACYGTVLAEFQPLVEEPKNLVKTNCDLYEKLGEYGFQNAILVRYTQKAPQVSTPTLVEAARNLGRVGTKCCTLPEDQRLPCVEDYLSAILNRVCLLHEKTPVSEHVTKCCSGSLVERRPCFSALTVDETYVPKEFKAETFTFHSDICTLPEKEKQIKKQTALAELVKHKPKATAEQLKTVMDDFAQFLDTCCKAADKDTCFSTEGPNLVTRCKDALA

Regarding “human serum albumin (from UniProt P02768 25-609) (natural protein)”, the Kd was 12.5 nM in experiment [1]; 10.7 nM in experiment [2]; 1.8 nM in experiment [3]; 4.6 nM in experiment [4]; 13.3 nM in experiment [5]; 1.23 nM in [6].

B1: CA645 gL5gH5 Fab (Fab, V domains shown)
VH: EVQLLESGGGLVQPGGSLRLSCAVSGIDLSNYAINWVRQAPGKGLEWIGIIWASGTTFYATWAKGRFTISRDNSKNTVYLQMNSLRAEDTAVYYCARTVPGYSTAPYFDLWGQGTLVTVSS
VL: DIQMTQSPSSVSASVGDRVTITCQSSPSVASNFLSWYQQKPGKAPKLLIYEASKLTSGVPSRFSGSGSGTDFTLTISSLQPEDFATYYCGGGYSSISDTTFGGGTKVEIK
In the experiment with human serum albumin [7], B1 came in with a Kd of 453 nM, a koff of 0.0571 s⁻¹ and a kon of 126000 M⁻¹ s⁻¹.

B2: CA645 gL19gH5 Fab (Fab, V domains shown)
VH: EVQLLESGGGLVQPGGSLRLSCAVSGIDLSNYAINWVRQAPGKGLEWIGIIWASGTTFYATWAKGRFTISRDNSKNTVYLQMNSLRAEDTAVYYCARTVPGYSTAPYFDLWGQGTLVTVSS
VL: DIQMTQSPSSVSASVGDRVTITCQSSPSVWDNFLSWYQQKPGKAPKLLIYEASKLTSGVPSRFSGSGSGTDFTLTISSLQPEDFATYYCGGGYSSISDTTFGGGTKVEIK
In turn, B2 displayed a Kd with human serum albumin [8] of 5 nM.

B3: CA645 gL5gH37 Fab (Fab, V domains shown)
VH: EVQLLESGGGLVQPGGSLRLSCAVSGIDLSNYAINWVRQAPGKGLEWIGIIWASGTTEYATWAKGRFTISRDNSKNTVYLQMNSLRAEDTAVYYCARTVPGYSTAPYFDLWGQGTLVTVSS
VL: DIQMTQSPSSVSASVGDRVTITCQSSPSVASNFLSWYQQKPGKAPKLLIYEASKLTSGVPSRFSGSGSGTDFTLTISSLQPEDFATYYCGGGYSSISDTTFGGGTKVEIK
In the case of B3, the binding result with human serum albumin [9] was “no binding”.

B4: CA645 gL5gH47 Fab (Fab, V domains shown)
VH: EVQLLESGGGLVQPGGSLRLSCAVSGIDLSNYAINWVRQAPGKGLEWIGIIWASGTTFYATWAKGRFTISRDNSKNTVYLQMNSLRAEDTAVYYCARTVPGYSSAPYFDLWGQGTLVTVSS
VL: DIQMTQSPSSVSASVGDRVTITCQSSPSVASNFLSWYQQKPGKAPKLLIYEASKLTSGVPSRFSGSGSGTDFTLTISSLQPEDFATYYCGGGYSSISDTTFGGGTKVEIK
Take B4: the Kd with human serum albumin [10] is 52000 nM.

B5: CA645 gL4gH37 Fab (Fab, V domains shown)
VH: EVQLLESGGGLVQPGGSLRLSCAVSGIDLSNYAINWVRQAPGKGLEWIGIIWASGTTEYATWAKGRFTISRDNSKNTVYLQMNSLRAEDTAVYYCARTVPGYSTAPYFDLWGQGTLVTVSS
VL: DIQMTQSPSSVSASVGDRVTITCQSSPSVWSNFLSWYQQKPGKAPKLLIYEASKLTSGVPSRFSGSGSGTDFTLTISSLQPEDFATYYCGGGYSSISDTTFGGGTKVEIK
In the experiment with human serum albumin [7], B5 returned a Kd of 955 nM, a koff of 0.0583 s⁻¹ and a kon of 61000 M⁻¹ s⁻¹.

B6: CA645 recombinant rabbit Fab (Fab, V domains shown)
VH: QSLEESGGRLVTPGTPLTLTCTVSGIDLSNYAINWVRQAPGKGLEWIGIIWASGTTFYATWAKGRFTISRPSTTVDLEMTSLTTADTATYFCARTVPGYSTAPYFDLWGPGTLVTVSS
VL: AAVLTQTPSPVSAAVGGTVTINCQSSPSVWSNFLSWYQQKPGQPPKLLIYEASKLTSGVPSRFKGSGSGTQFTLTISDVQCGDAATYYCGGGYSSISDTTFGGGTKVVVK
In the case of B6, the dissociation constant Kd with mouse serum albumin was 2.6 nM; in the experiment with human serum albumin [11] it was 0.31 nM.

The record behind these values is paper PMC5058626 (mAbs, 2016).
